# Assay results as given in the supplement of paper PMC9170038.
# Tested on: K4 kissing-loop RNA reporter
# Assay: apparent KD of K4 kissing-loop reporter; higher = weaker reporter binding
# Settings: Eterna round: R107; input ligand: theophylline 20 uM
# Description: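 RNA-MaP round R107: designed RNA switches with theophylline, tryptophan, arginine or FMN aptamers are transcribed on-chip within common flanks. They are titrated with a labelled K4 kissing-loop RNA reporter in RNA-MaP buffer (100 mM Tris pH 7.5, 80 mM KCl, 4 mM MgCl2), without ligand or with the indicated ligand. Median apparent KD per design.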
# 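Note: bound reporter read as fluorescence of individual clusters on recovered sequencing chips by microscopy, with normalized cluster intensities fitted with a binding model.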
row,Sequence,apparent KD of K4 kissing-loop reporter [µM]
1,GAAAUCACGGAUGAUACCAGCCAGAACUCUCACAGUGAUGUUGUGCUUAAAUGAUUAGGAGGCCCUUGGCAGCAUACGCUAAUUU [theeternabot_sameState_KL_Theo_B_36],0.305
2,CCUCACGUAGGACUAGUGAUGUUAGACUACCGAGGACCGGUACGGCCGCCACUCGUCGUACAAGAUAACCUUCCGCCAGUAUACA,0.0836
3,AGUCCACUCUAAAGAGUGGACCUAAGGGAUACCAGUGAUGUUGGUCACCCUUGGCAGCCCGCUGUCAUCGAUAAAGAUGGCAGUA,0.121
4,AUUCGUCUCUGAGGAUAUCAGAGGAGAGUGAUGUUCUCCCAUAGCCCAGUGAUGUUGGAUGCUAUCUGAGAAGGCAGUGGGCGAA [Same State FMN B GF 14],0.226
5,AGGAUGUAGUGAUGUUAUAUAAAAGGUAAACGAGGACCGGUACGGCCGCCACUCGAAGCGGCUGCUAAGAGGGAAAGAAGAGGAA [ExTryptoA.E],0.684
6,UUAGAGAUCUCAGGAUAUGAGUGAUGUUGGUGUCAAGAUCUGAGAUAGAAUUCUAUCUCAGAUCAAUCAGAAGGGAGAUCUCAUU [AK2.2 Exc FMN B],0.485
7,GGUAGCAUGGCGGCCGCCACUCUUCAUUAGUGAUGUUAAUGCCGAGUGCGCUAACUCCUACGGGAGAGGACCGGGCCAUGCUACC,0.919
8,AAAUAGAUCAGUCACCCAGUGAUGUUGGAAGGAGCGUGCGAAAGCACAGGUAGGUCGCCAAAACCUAAGUGGCUGAUCAAAAUAA [#SwitchBubble 4 #K4Early],0.523
9,GCUAUGGUAGGAAGGAGCGCGGACGGUAUUUGUCGAGUGAUGUUCGAUUCUUUAAUUUGAACGCAGGUAGGUCGCCUACUAUAGC [Arginine B K4 30],0.258
10,UGUCAUUGGUCGGCCGCCACUAGAAGGUCAAAGACCAUGGAGUGAUGUUCUAAGACGAAAGUCACUAGGACCGGGACCGAUGACU [TrypBS 5 #SwitchBubble #K4Middle],0.918
11,AACCACUCGUUACAUCACUAUCGAGUGGAACGAGGACCGGUACGGCCGCCACUCGAUAACUUGCAGUGAUGUUGCAAGUAAGAAU [(T)''-(K)'-(T)'-(T1)-(T2)-(K1)-(K2)_Design9],0.381

# Same assay, conditions: Eterna round: R107; input ligand: tryptophan 2.4 mM
row,Sequence,apparent KD of K4 kissing-loop reporter [µM]
1,GCCGUAGAUGGAAGGAGCGUGCCUUUCAGUUAUAGUGAUGUUAUAACCGAGGAACGGUUGGCACAGGUAGGUCGCCAUCUACGGC,0.121
2,AAUGUGCAGGGAAGGAGCGUAGUCCAGUGCUGUUGGAGUUAAAUACCAGUGAUGUUGGUUAUACAGGUAGGUCGCCCUAAAGCGC [whbob_Ex_Arginine_B_2th160],0.129
3,GGCACGGGCUCGGCCGCCACUCCCGCGGGUCGAAAGGUCCGCUACUGAGUGAUGUUCGGUUGGAGGAGGACCGGGAGCCCGUGCC [#2 Exclusion - Tryptophan B Attempt #23 (HarryS)],0.0984
4,UGGAUAUAGUGAUGUUAUAUAGAGAUGGAUACCAGCAAAGAGAAUUGCCCUUGGCAGCCGAAAGAAGUAUCAUUAGAGAAGAAUG [ExTheophyl.Af],0.206
5,GGCGGCCGCGCGCAAGCGCGGCCGGCCGAUACCAGCGCGACGGCGCGCCCUUGGCAGCGGCGCCGAGUGAUGUUCGGCCUGCCGU [#2 Same State - Theophylline A Attempt #15 (HarryS)],0.0964
6,UAGGGCAUCGCAGGAUAUCCUGCUUAACGUUGGAUUCCAGUGAUGUUGGAAAGCCGGCCUAGGGUAGGAGAAGGGCGGACUUGAA [Riteteve],0.241
7,UGUGUUGUUUUGAUGUUUGGUGUUUGUUGGCAGGAUAUCGUAGAGGCGAGAAGGGCUUUGUUGCGGUAUGAGUGAUGUUUGUAGG [szzrmullin],0.255
8,GGAAAUUGAUCAACGCAGUGAUGUUGCGAUACCAGACACAAAGCCGUCCCUUGGCAGCGCGGGACAUUAAUGGAUCUAUGGGUUC [theeternabot_exclusion_KL_Theo_A_26],0.0668
9,GAUAUAGUGAUGUUAUAUGGGAAGGAGUUACGAGGACCGGUACGGCCGCCACUCGAAACGAGUGAGGAUUUGGGAGAUUGGGUUU [SSTryptA.R],0.235
10,UGUGAGCUGUCGACAAAAGUCGACUAAAGCGAGGAUAUGACGAAAGUCAGAAGGCGUCAAUAAUGGAGUGAUGUUCCUGCUCACU [FmnA 9 G29],0.406
11,CGAGUCCUGAGGAGUGAUGUUCCUCGGCCACGAGGACCGGUACGGCCGCCACUCGUUACUCGGGCUUAGUAGCUAGCACUAAGCU [Quedmaon],0.101
12,GGAGUUACCUGGGAUACCAGUCGGAGUCUCAGAGCUCGGAGUGAUGUUCUGGGAUGUUUCGGCCCUUGGCAGCUCUGGGACUCCA [#2 Exclusion - Theophylline B Attempt #16 (HarryS)],0.707
13,AGCCUUACAUCGGCCGCCACUUCCCUGGCAGUGAUGUUGCCGUAGACAAUCAUUCUACCCUGGAGAAGGACCGGGAUGCAGAAAC [theeternabot_sameState_KL_Trp_B_8],0.329
14,UUUGGAGUGGGAGGAUAUCCUAAUAUGGGUGAUGUUAGCGAUGUUGAAGGUGUAGUGAUGUUAUGCGGAGAAGGCCCACUGUAGA [BDazzled - #19 - Exc. FMN B],0.0892
15,AGAUGGAAUAGAAGGAGCGGCGCCAGUGAUGUUGGAUGCCGCGGGUGAAUCAGAUCAUAGUGCCAGGUAGGUCGCUAUUUCAGCG [Anedin],0.112
16,AAAAUAAAUAGCAGUCAUGGAGUGAUGUUCCGAGGACCGGUACGGCCGCCACUCGACCAUCAUAAGAUGGAAUGGCGAGACUGCA [#SwitchBubble 22 #K4Early],0.52
17,UGGAGUUGACGAAAAGUCAACUCCUGGGAAGGAGCGGACGAAAGUCCAGGUAGGUCGCCCACUACCAGUGAUGUUGGUACUCAAA,0.169
18,UGGAGUUGACGAAAAGUCAACUCCUGAGAUACCAGUGACGAAAGUCACCCUUGGCAGCUCACUGGCAGUGAUGUUGCGCGAUAAA [#23 K4 Theophylline A Same State],0.402
19,GCCGUACGCAUGGAUACCAGUCUACAUCGCAGUGAUGUUGCGUAGUUCAGAUAGAUUGCCGACCCUUGGCAGCCAUGCGUACGGC,0.114
20,AGAACUGUCUUGGAUACCAGUGAUGUUGGUAUCGAUGUGUGAGUGCAAAGCGUCCCACAUCGCCCUUGGCAGCUAAGACUGUUCA [Omei KL Theo B Exc A v4],0.257
21,GAUGAACUAUUCGAUACCAGACUACAUGAGUGAUGUUCAUGUGUGUCAAUGUCUAUGUCAGUCCCUUGGCAGCGAAUAGUUUAUC [KL-XTheo-B27],0.125
22,CGAGUGAUGUUCGUUUUUUACUCUUUUUGACAGGAUAUGCGGAAACGCAGAAGGGUCACCUUUGAGUUAAAAGGAGUUAUUUUUU [Ex FMN A 19],0.317

row,Sequence,apparent KD of K4 kissing-loop reporter [µM]
1,UCGUCUGUGUGAGGAUAUCCAAGCGAGCUGCGUACAGGUGCGGCGUUUGGAGUGAUGUUCCAGGCAGGAGAAGGCGCACGGGCUU [Esored],0.251
2,GAAUGGAGUGAUGUUCCAUUAACGAUCCUACGAGGACCGGUACGGCCGCCACUCGUAUUGCAGUGAUGUUGCAACCAGCCGUACU [Exclusion Tryptophan A GF 9],0.102
3,AUGCUUCAGUAAGGAUAUGGAGGCAGAGUGAAGAUUGUCGUGUAACCGAGUUAAGUGAUGUUUGAUCCAGAAGGUACAUGCGUGU [theeternabot_exclusion_KL_FMN_B_15],0.605
4,UGCGCUGUGUACUGUAAUGUUAUGCGGGAUACCAGAGUCUUUUUAUUCCCUUGGCAGCUUGAGUGAUGUUUGAUGCCGUUCUUGU [plpkmullin],0.401
5,GGUAUGGAAGCAACAUCACAAGCCGUACCACGAGGACCGGUACGGCCGCCACUCGAUAACUUGCAGUGAUGUUGCAAGUAAGAAU [(T)''-(K)'-(T)'-(T1)-(T2)-(K1)-(K2)_Design6],0.0686
6,GGUUCUGGUUUGGAGUGAUGUUCUAAGUGGCAGGAUAUGGAGAGAUCCAGAAGGGCCGUUUGUAUCUUUUUUGUGUGGUUUUUUU [Last Minute #2],0.161
7,AAAUUUAAUAUAUUUAAUUAAUUAUGUGAUACCAGACAUUAAUAAGUCCCUUGGCAGCACAAUGCAGUGAUGUUGCUUAUAAUAA [JR_SSTheophyA_Sub010],0.0703
8,AGAGUUAUAUGAGGAUAUGGGAUAGUAACUGAGUGAGUUAUAGUGUAGUUUGUUUAGUGAUGUUAUUUAGAAGGCGUGAGUGAUG [wwwsemullin],0.107
9,AUGUCGUUAUAGUGAGUGAUGUUCACUGUGCGAGGACCGGUACGGCCGCCACUCGAGAGUGGUGGACACUGAGUCACUCUGACAC [Tryp A Ex t2],0.283
10,UGGACCUGACUCGAUAAGAGUCAAUGAGAUACCAGCCACGAAAGUGGCCCUUGGCAGCUCUGCCAGUGAUGUUGGUCAAGGUCCU [#SwitchBubble 5 #StaticStem],1.1
11,GAAAUCACGGAUGAUACCAGCCAGAACUCUCACAGUGAUGUUGUGCUUAAAUGAUUAGGAGGCCCUUGGCAGCAUACGCUAAUUU [theeternabot_sameState_KL_Theo_B_36],0.226
12,CCUCACGUAGGACUAGUGAUGUUAGACUACCGAGGACCGGUACGGCCGCCACUCGUCGUACAAGAUAACCUUCCGCCAGUAUACA,0.108
13,AGUCCACUCUAAAGAGUGGACCUAAGGGAUACCAGUGAUGUUGGUCACCCUUGGCAGCCCGCUGUCAUCGAUAAAGAUGGCAGUA,0.117
14,AUUCGUCUCUGAGGAUAUCAGAGGAGAGUGAUGUUCUCCCAUAGCCCAGUGAUGUUGGAUGCUAUCUGAGAAGGCAGUGGGCGAA [Same State FMN B GF 14],0.186
15,AGGAUGUAGUGAUGUUAUAUAAAAGGUAAACGAGGACCGGUACGGCCGCCACUCGAAGCGGCUGCUAAGAGGGAAAGAAGAGGAA [ExTryptoA.E],0.371
16,UUAGAGAUCUCAGGAUAUGAGUGAUGUUGGUGUCAAGAUCUGAGAUAGAAUUCUAUCUCAGAUCAAUCAGAAGGGAGAUCUCAUU [AK2.2 Exc FMN B],0.413
17,GGUAGCAUGGCGGCCGCCACUCUUCAUUAGUGAUGUUAAUGCCGAGUGCGCUAACUCCUACGGGAGAGGACCGGGCCAUGCUACC,0.0146
18,AAAUAGAUCAGUCACCCAGUGAUGUUGGAAGGAGCGUGCGAAAGCACAGGUAGGUCGCCAAAACCUAAGUGGCUGAUCAAAAUAA [#SwitchBubble 4 #K4Early],0.587
19,GCUAUGGUAGGAAGGAGCGCGGACGGUAUUUGUCGAGUGAUGUUCGAUUCUUUAAUUUGAACGCAGGUAGGUCGCCUACUAUAGC [Arginine B K4 30],0.221
20,UGUCAUUGGUCGGCCGCCACUAGAAGGUCAAAGACCAUGGAGUGAUGUUCUAAGACGAAAGUCACUAGGACCGGGACCGAUGACU [TrypBS 5 #SwitchBubble #K4Middle],0.575
21,AACCACUCGUUACAUCACUAUCGAGUGGAACGAGGACCGGUACGGCCGCCACUCGAUAACUUGCAGUGAUGUUGCAAGUAAGAAU [(T)''-(K)'-(T)'-(T1)-(T2)-(K1)-(K2)_Design9],0.289
